T1: MtRipACAT (catalytic domain of M. tuberculosis RipA, residues 261–472) (Mycobacterium tuberculosis, UniProt O53168 261-472)
T1 construct: also called MtRipA catalytic domain; NlpC/P60 catalytic domain; not shown: His6, N-terminal, cleaved; SUMO, N-terminal, cleaved
T1 sequence: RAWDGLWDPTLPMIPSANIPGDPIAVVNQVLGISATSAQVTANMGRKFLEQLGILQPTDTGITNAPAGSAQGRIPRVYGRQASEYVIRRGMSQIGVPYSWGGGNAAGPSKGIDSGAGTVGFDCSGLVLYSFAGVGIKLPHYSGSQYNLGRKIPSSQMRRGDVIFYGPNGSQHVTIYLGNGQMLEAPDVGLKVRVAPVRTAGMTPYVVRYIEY

B1: MtRipACC (coiled-coil domain of M. tuberculosis RipA, residues 40–240) (domain or fragment)
chain: DPQTDTIAALIADVAKANQRLQDLSDEVQAEQESVNKAMVDVETARDNAAAAEDDLEVSQRAVKDANAAIAAAQHRFDTFAAATYMNGPSVSYLSASSPDEIIATVTAAKTLSASSQAVMANLQRARTERVNTESAARLAKQKADKAAADAKASQDAAVAALTETRRKFDEQREEVQRLAAERDAAQARLQAARLVAWSSE
modifications: biotin (EZ-Link NHS-PEG4-Biotin, 20 molar excess) in the BLI assays only
notes: Biotinylated and immobilised on streptavidin sensors for BLI; not biotinylated in the crystal of the complex; also called RipA coiled-coil domain; CC domain of RipA; not shown: His6, N-terminal, cleaved; SUMO, N-terminal, cleaved
B2: CgSteBΔTM (soluble SteB of Corynebacterium glutamicum) (domain or fragment)
chain: APNLPENIDPNAPTSAELVEAETLAEVNAVQADQADSIIDHIVEDVVAGTLTDRPVLVMRTADAEESDVADVSWLLQQAGAINAGSITLEENFFSQDGADQLKSIVANTLPAGAQLSETQLDPGTHAGEALGAALLLNPETGEPLASTAERGLLLNVLRDNGYISYEDGTILPGQVIVMITGDSDGSGDGAFAAETQSLFARALDAQGSGVVVAGRIHTAADTGVIGRLRANPDAAENVSTIDSVNRTWGKMATVLSVREELAGRSGAFGSAASADAASPSLDGTAAAPAQ
notes: The cloning of this construct is not described here; source: E. coli BL21 (DE3), purified ("pure protein sample")

What was measured:
[1] = target: T1, MtRipACAT (catalytic domain of M. …); assay: BLI; biotinylated MtRipACC immobilised on streptavidin biosensors; Octet-Red384, 25°C; 25 mM HEPES pH 7.5, 150 mM NaCl, 5% glycerol, 1 mg/mL BSA, 0.05% Tween 20; MtSteB 200–3.125 μM or MtRipACAT 80–1.25 μM; steady-state signal, one-site binding model; apparent Kd; conditions: both partners purified
[2] = target: the molecule itself; assay: SEC; analytical SEC, Superdex-200 3.2/300, 25 mM Hepes pH 8, 150 mM NaCl; calibrated with BioRad gel filtration standard

Binder	Kd [1]	stoichiometry N [2]
B1	6.8 ± 1.4 µM	
B2		2

Source: publication PMC12977500, “Mechanistic insights into SteAB regulation of cell wall hydrolase RipA in Mycobacterium tuberculosis” (mBio, 2026)
